Laboratory results as given in patent US20160083450A1, “HUMAN PROTEIN SCAFFOLD WITH CONTROLLED SERUM PHARMACOKINETICS” (THE REGENTS OF THE UNIVERSITY OF CALIFORNIA, priority 2009, published 2016).

Assays:
[1] = set-up: species or system Balb/c mice; details: mouse, in vivo
Procedure: Their pharmacokinetic profile in blood was evaluated in vivo by injecting each ^131I-labeled DIII protein intravenously in Balb/c mice. Blood was drawn from the tail at eight different time points (0-72 h) and the radioactivity was counted in a gamma well counter.

[2] = assay type: physicochemical
Procedure: (§1) When dissolved in aqueous solution, the peptide precipitated. Lack of solubility in water immediately renders this peptide inappropriate for in vivo application. Prior to conjugation, the HyNic modified peptide was dissolved in dimethyl formamide (DMF) organic solvent. The purified DIM was modified to incorporate the 4FB moiety at random lysine residues following protocols provided by SoluLink. After conjugation, the peptide/DIII ratio was determined by measuring A354nm to be an average of 2 CEA specific peptides for every DIIIb molecule and the conjugate was soluble in aqueous solutions. Size exclusion chromatography using Superdex 200 column (GE Healthcare Piscataway, N.J.) was used for purification. Purified anti-CEA peptide-DIIIb conjugates were then radiolabeled with ^124I and injected intravenously in four athymic nude mice bearing LS174T (CEA positive) and C6 (CEA negative) tumors. Mice were imaged by small animal PET/CT at 4, 20 and 27 h, after which mice were euthanized, dissected and tissues/organs were counted in a gamma well counter.

[3] = test system: LS174T (CEA positive) tumor; assay type: in vivo, athymic nude mice
Procedure: as §1

For “DIII WT: HSA domain III wild type (amino acid residues 384 to 585)”, the “AUC (time integral of the blood uptake)” value [1] was 474.8 % ID/g × h, the “Aα (amplitude)” value [1] was 36.2 % ID/g and the “Aβ (amplitude)” value [1] was 16.81 % ID/g. The k1 [1] was 0.3479, the k2 [1] was 0.04534 and the t1/2α [1] was 1.99 h.

In the case of “SDWVCEFIKSQWFCNVLASG [CEA specific, cyclic peptide, reference compound]”, the “Solubility in aqueous solution” value [2] is reported as “precipitated”.

With “DIII H464A: HSA domain III variant with H464 mutated to alanine” the “AUC (time integral of the blood uptake)” value [1] was 199 % ID/g × h, the “Aα (amplitude)” value [1] was 44.95 % ID/g and the “Aβ (amplitude)” value [1] was 11.41 % ID/g. It also gave a k1 [1] of 1.438, a k2 [1] of 0.068 and a t1/2α [1] of 0.482 h. For the same molecule, the t1/2β [1] was 10.2 h.

B1: anti-CEA peptide-DIIIb conjugate: CEA specific cyclic peptide (HyNic) conjugated to 4FB-modified DIIIb, average of 2 peptides per DIIIb (conjugate)
chain: HADICTLSEKERQIKKQTALVELVKHKPKATKEQLKAVMDDFAAFVEKCCKADDKETCFAEEGKKLVAASQAALGL
peptide: SDWVCEFIKSQWFCNVLASG
modifications: cyclised or stapled
notes: CEA specific cyclic peptide (HyNic) conjugated to 4FB-modified DIIIb, average of 2 peptides per DIIIb
With B1 the “(CEA positive) tumor/(CEA negative) tumor ratio” value ([3]; 27 h) was 1.2, the Tumor/muscle ratio ([3]; 27 h) was 5.1 and the tumor/blood ratio ([3]; 27 h) was 0.51. The “Targeting of CEA positive tumor” value ([3]; PET/CT images) was “target the CEA positive tumor”, the Blood ([3]; mouse, in vivo) was 3.00 % ID/g and the “C6 Tumor” value ([3]; mouse, in vivo) was 1.26 % ID/g. The Carcass ([3]; mouse, in vivo) was 0.56 % ID/g, the Kidneys ([3]; mouse, in vivo) was 3.66 % ID/g and the “LS174T Tumor” value ([3]; mouse, in vivo) was 1.53 % ID/g. It also gave a Liver ([3]; mouse, in vivo) of 1.42 % ID/g, a Lungs ([3]; mouse, in vivo) of 2.36 % ID/g and a Muscle ([3]; mouse, in vivo) of 0.30 % ID/g. For the same molecule, the Spleen ([3]; mouse, in vivo) was 1.04 % ID/g, the Stomach ([3]; mouse, in vivo) was 1.07 % ID/g and the “Solubility in aqueous solution” value [2] was “soluble”.
